Results as given in the supplement of paper PMC5998384.

Columns and labels:
[1] = system: HeLa Kyoto; test: thermal stability score vs G1/S (z-score of summed log2 fold changes over temperatures); higher = more thermally stable than in G1/S
[2] = system: HeLa Kyoto; test: solubility change mitosis vs G1/S (difference of NP-40 vs SDS log2 ratios) (log2 ratio difference); higher = more soluble in mitosis
[3] = system: HeLa Kyoto; test: solubility in G1/S (NP-40 vs SDS abundance) (log2 ratio); higher = more soluble; conditions: cell cycle stage: G1/S
[4] = system: HeLa Kyoto; test: melting temperature (median over replicates), in situ; higher = more thermally stable
[5] = cell cycle stage: early G1 (4.5 h after nocodazole release)
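Wherever melting temperature (median over replicates), in situ is given: HeLa Kyoto cells synchronized by double thymidine or nocodazole block, proteins quantified by TMT10plex mass spectrometry, three independent biological replicates.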
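Wherever solubility change mitosis vs G1/S (difference of NP-40 vs SDS log2 ratios) is given: synchronized HeLa Kyoto cells (double thymidine block for G1/S, nocodazole release for mitosis), protein amounts in NP-40 versus SDS lysates quantified by mass spectrometry, three biological replicates.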
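Wherever solubility in G1/S (NP-40 vs SDS abundance) is given: HeLa Kyoto cells arrested at G1/S by double thymidine block, proteins quantified by TMT10plex mass spectrometry in mild NP-40 versus SDS extracts, three biological replicates.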
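Wherever thermal stability score vs G1/S (z-score of summed log2 fold changes over temperatures) is given: synchronized HeLa Kyoto cells, proteins quantified by TMT10plex mass spectrometry, three biological replicates, mitosis taken 0.5 h after nocodazole release, G1/S directly after double thymidine block.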

Chain of EZH2 (chain, as listed by the source): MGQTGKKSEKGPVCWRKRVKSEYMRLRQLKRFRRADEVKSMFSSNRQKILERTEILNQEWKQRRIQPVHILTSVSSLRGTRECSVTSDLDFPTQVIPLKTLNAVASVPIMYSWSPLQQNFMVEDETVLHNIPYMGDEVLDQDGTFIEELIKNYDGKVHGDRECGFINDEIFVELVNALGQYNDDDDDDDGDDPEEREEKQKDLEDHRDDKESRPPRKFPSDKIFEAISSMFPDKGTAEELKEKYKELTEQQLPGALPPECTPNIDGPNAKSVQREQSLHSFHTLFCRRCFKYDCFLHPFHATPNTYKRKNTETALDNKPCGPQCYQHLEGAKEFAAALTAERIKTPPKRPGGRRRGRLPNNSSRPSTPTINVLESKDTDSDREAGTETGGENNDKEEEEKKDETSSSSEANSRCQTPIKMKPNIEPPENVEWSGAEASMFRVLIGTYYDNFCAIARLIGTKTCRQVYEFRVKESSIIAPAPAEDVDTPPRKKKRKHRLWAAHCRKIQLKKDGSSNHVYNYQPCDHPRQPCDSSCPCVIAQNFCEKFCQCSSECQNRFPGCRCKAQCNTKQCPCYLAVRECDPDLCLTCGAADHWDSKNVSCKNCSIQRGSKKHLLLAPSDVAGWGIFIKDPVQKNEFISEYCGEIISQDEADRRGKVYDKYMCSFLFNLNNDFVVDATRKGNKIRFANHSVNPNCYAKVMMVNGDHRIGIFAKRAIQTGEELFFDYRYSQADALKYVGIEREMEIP
Chain of FXR2 (chain, as listed by the source): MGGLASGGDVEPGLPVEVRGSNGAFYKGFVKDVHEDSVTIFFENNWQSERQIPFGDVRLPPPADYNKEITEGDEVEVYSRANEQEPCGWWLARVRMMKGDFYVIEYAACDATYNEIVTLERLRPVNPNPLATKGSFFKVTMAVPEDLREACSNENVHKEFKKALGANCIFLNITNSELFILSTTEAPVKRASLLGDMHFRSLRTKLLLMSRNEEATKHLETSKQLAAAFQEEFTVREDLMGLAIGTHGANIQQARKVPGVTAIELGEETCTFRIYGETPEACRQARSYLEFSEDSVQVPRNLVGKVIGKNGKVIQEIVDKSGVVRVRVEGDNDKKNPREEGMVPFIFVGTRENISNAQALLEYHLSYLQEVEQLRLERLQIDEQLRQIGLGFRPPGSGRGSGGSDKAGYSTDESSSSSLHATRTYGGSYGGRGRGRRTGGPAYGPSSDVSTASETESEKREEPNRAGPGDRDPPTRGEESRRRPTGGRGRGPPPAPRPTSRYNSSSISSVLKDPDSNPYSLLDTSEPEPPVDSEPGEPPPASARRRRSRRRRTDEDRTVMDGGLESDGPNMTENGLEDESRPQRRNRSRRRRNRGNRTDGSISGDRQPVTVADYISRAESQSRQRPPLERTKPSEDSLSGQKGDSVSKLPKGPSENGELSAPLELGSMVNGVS

Row | Substance | thermal stability score [1, 5] | thermal stability score ([1]; cell cycle stage: mitosis) | solubility change mitosis (log2) [2] | solubility in G1/S (log2) [3] | melting temperature ([4]; cell cycle stage: G1/S) | melting temperature ([4]; cell cycle stage: mitosis)
1 | MWSPEREAEAPAGGDPAGLLPPEWEEDEERMSFLFSAFKRSREVNSTDWDSKMGFWAPLVLSHSRRQGVVRLRLRDLQEAFQRKGSVPLGLATVLQDLLRRGELQRESDFMASVDSSWISWGVGVFLLKPLKWTLSNMLGDNKVPAEEVLVAVELLKEKAEEVYRLYQNSPLSSHPVVALSELSTLCANSCPDERTFYLVLLQLQKEKRVTVLEQNGEKIVKFARGPRAKVSPVNDVDVGVYQLMQSEQLLSRKVESLSQEAERCKEEARRACRAGKKQLALRSLKAKQRTEKRIEALHAKLDTVQGILDRIYASQTDQMVFNAYQAGVGALKLSMKDVTVEKAESLVDQIQELCDTQDEVSQTLAGGVTNGLDFDSEELEKELDILLQDTTKEPLDLPDNPRNRHFTNSVPNPRISDAELEAELEKLSLSEGGLVPSSKSPKRQLEPTLKPL [CHMP7] | 0.579 | 1.08 | -0.0049 | 0.221 | 49.2 °C | 48.9 °C
2 | MAAAPLKVCIVGSGNWGSAVAKIIGNNVKKLQKFASTVKMWVFEETVNGRKLTDIINNDHENVKYLPGHKLPENVVAMSNLSEAVQDADLLVFVIPHQFIHRICDEITGRVPKKALGITLIKGIDEGPEGLKLISDIIREKMGIDISVLMGANIANEVAAEKFCETTIGSKVMENGLLFKELLQTPNFRITVVDDADTVELCGALKNIVAVGAGFCDGLRCGDNTKAAVIRLGLMEMIAFARIFCKGQVSTATFLESCGVADLITTCYGGRNRRVAEAFARTGKTIEELEKEMLNGQKLQGPQTSAEVYRILKQKGLLDKFPLFTAVYQICYESRPVQEMLSCLQSHPEHT [GPD1L] | 0.464 | -0.000421 | -0.126 | 0.144 | 53.2 °C | 53 °C
3 | MLSLQYPDVYRDETAVQDYHGHKICDPYAWLEDPDSEQTKAFVEAQNKITVPFLEQCPIRGLYKERMTELYDYPKYSCHFKKGKRYFYFYNTGLQNQRVLYVQDSLEGEARVFLDPNILSDDGTVALRGYAFSEDGEYFAYGLSASGSDWVTIKFMKVDGAKELPDVLERVKFSCMAWTHDGKGMFYNSYPQQDGKSDGTETSTNLHQKLYYHVLGTDQSEDILCAEFPDEPKWMGGAELSDDGRYVLLSIREGCDPVNRLWYCDLQQESSGIAGILKWVKLIDNFEGEYDYVTNEGTVFTFKTNRQSPNYRVINIDFRDPEESKWKVLVPEHEKDVLEWIACVRSNFLVLCYLHDVKNILQLHDLTTGALLKTFPLDVGSIVGYSGQKKDTEIFYQFTSFLSPGIIYHCDLTKEELEPRVFREVTVKGIDASDYQTVQIFYPSKDGTKIPMFIVHKKGIKLDGSHPAFLYGYGGFNISITPNYSVSRLIFVRHMGGILAVANIRGGGEYGETWHKGGILANKQNCFDDFQCAAEYLIKEGYTSPKRLTINGGSNGGLLVAACANQRPDLFGCVIAQVGVMDMLKFHKYTIGHAWTTDYGCSDSKQHFEWLVKYSPLHNVKLPEADDIQYPSMLLLTADHDDRVVPLHSLKFIATLQYIVGRSRKQSNPLLIHVDTKAGHGAGKPTAKVIEEVSDMFAFIARCLNVDWIP [PREP] | -0.0879 | 0.619 | -0.186 | 0.00417 | 49.3 °C | 49.5 °C
4 | FXR2 | -1.1 | -0.108 | 0.38 | -1.13 | 52.6 °C | 51.7 °C
5 | MEKSSSCESLGSQPAAARPPSVDSLSSASTSHSENSVHTKSASVVSSDSISTSADNFSPDLRVLRESNKLAEMEEPPLLPGENIKDMAKDVTYICPFTGAVRGTLTVTNYRLYFKSMERDPPFVLDASLGVINRVEKIGGASSRGENSYGLETVCKDIRNLRFAHKPEGRTRRSIFENLMKYAFPVSNNLPLFAFEYKEVFPENGWKLYDPLLEYRRQGIPNESWRITKINERYELCDTYPALLVVPANIPDEELKRVASFRSRGRIPVLSWIHPESQATITRCSQPMVGVSGKRSKEDEKYLQAIMDSNAQSHKIFIFDARPSVNAVANKAKGGGYESEDAYQNAELVFLDIHNIHVMRESLRKLKEIVYPNIEETHWLSNLESTHWLEHIKLILAGALRIADKVESGKTSVVVHCSDGWDRTAQLTSLAMLMLDGYYRTIRGFEVLVEKEWLSFGHRFQLRVGHGDKNHADADRSPVFLQFIDCVWQMTRQFPTAFEFNEYFLITILDHLYSCLFGTFLCNSEQQRGKENLPKRTVSLWSYINSQLEDFTNPLYGSYSNHVLYPVASMRHLELWVGYYIRWNPRMKPQEPIHNRYKELLAKRAELQKKVEELQREISNRSTSSSERASSPAQCVTPVQTVV [MTMR2] | -1.45 | -1.51 | -0.12 | 0.0322 | 53.4 °C | 53 °C
6 | ANKRD17 | -0.291 | 0.712 | 0.0244 | -0.13 | 49.8 °C | 49.9 °C
7 | MEESHFNSNPYFWPSIPTVSGQIENTMFINKMKDQLLPEKGCGLAPPHYPTLLTVPASVSLPSGISMDTESKSDQLTPHSQASVTQNITVVPVPSTGLMTAGVSCSQRWRREGSQSRGPGLVITSPSGSLVTTASSAQTFPISAPMIVSALPPGSQALQVVPDLSKKVASTLTEEGGGGGGGGGSVAPKPPRGRKKKRMLESGLPEMNDPYVLSPEDDDDHQKDGKTYRCRMCSLTFYSKSEMQIHSKSHTETKPHKCPHCSKTFANSSYLAQHIRIHSGAKPYSCNFCEKSFRQLSHLQQHTRIHSKMHTETIKPHKCPHCSKTFANTSYLAQHLRIHSGAKPYNCSYCQKAFRQLSHLQQHTRIHTGDRPYKCAHPGCEKAFTQLSNLQSHRRQHNKDKPFKCHNCHRAYTDAASLEVHLSTHTVKHAKVYTCTICSRAYTSETYLMKHMRKHNPPDLQQQVQAAAAAAAVAQAQAQAQAQAQAQAQAQAQAQASQASQQQQQQQQQQQQQQQQPPPHFQSPGAAPQGGGGGDSNPNPPPQCSFDLTPYKTAEHHKDICLTVTTSTIQVEHLASS [ZNF384] | -0.69 | -1.1 | 0.0582 | -0.109 | 51.6 °C | 52.4 °C
8 | EZH2 | 2.26 | 4 | 0.156 | -0.621 | 49 °C | 49.9 °C
9 | MAAEGWIWRWGWGRRCLGRPGLLGPGPGPTTPLFLLLLLGSVTADITDGNSEHLKREHSLIKPYQGVGSSSMPLWDFQGSTMLTSQYVRLTPDERSKEGSIWNHQPCFLKDWEMHVHFKVHGTGKKNLHGDGIALWYTRDRLVPGPVFGSKDNFHGLAIFLDTYPNDETTERVFPYISVMVNNGSLSYDHSKDGRWTELAGCTADFRNRDHDTFLAVRYSRGRLTVMTDLEDKNEWKNCIDITGVRLPTGYYFGASAGTGDLSDNHDIISMKLFQLMVEHTPDEESIDWTKIEPSVNFLKSPKDNVDDPTGNFRSGPLTGWRVFLLLLCALLGIVVCAVVGAVVFQKRQERNKRFY [LMAN2] | 2.85 | 5.52 | -0.0609 | 0.163 | 54.1 °C | 53.8 °C
10 | MLRTTRGPGLGPPLLQAALGLGRAGWHWPAGRAASGGRGRAWLQPTGRETGVQVYNSLTGRKEPLIVAHAEAASWYSCGPTVYDHAHLGHACSYVRFDIIRRILTKVFGCSIVMVMGITDVDDKIIKRANEMNISPASLASLYEEDFKQDMAALKVLPPTVYLRVTENIPQIISFIEGIIARGNAYSTAKGNVYFDLKSRGDKYGKLVGVVPGPVGEPADSDKRHASDFALWKAAKPQEVFWASPWGPGRPGWHIECSAIASMVFGSQLDIHSGGIDLAFPHHENEIAQCEVFHQCEQWGNYFLHSGHLHAKGKEEKMSKSLKNYITIKDFLKTFSPDVFRFFCLRSSYRSAIDYSDSAMLQAQQLLLGLGSFLEDARAYMKGQLACGSVREAMLWERLSSTKRAVKAALADDFDTPRVVDAILGLAHHGNGQLRASLKEPEGPRSPAVFGAIISYFEQFFETVGISLANQQYVSGDGSEATLHGVVDELVRFRQKVRQFALAMPEATGDARRQQLLERQPLLEACDTLRRGLTAHGINIKDRSSTTSTWELLDQRTKDQKSAG [CARS2] | 0.291 | -0.0596 | -0.0653 | 0.0252 | 55.4 °C | 54.1 °C
11 | MRGAGAILRPAARGARDLNPRRDISSWLAQWFPRTPARSVVALKTPIKVELVAGKTYRWCVCGRSKKQPFCDGSHFFQRTGLSPLKFKAQETRMVALCTCKATQRPPYCDGTHRSERVQKAEVGSPL [CISD3] | -0.749 | -0.997 | 0.0825 | -0.205 | 50.8 °C | 
12 | WDR62 | 0.713 | 1.36 | 0.187 | -0.382 | 49 °C | 49.3 °C
